According to article PMC10663500, “High-throughput analysis system of interaction kinetics for data-driven antibody design” (Scientific Reports, 2023):
Where a chain is given by its changes, count along the chain named.

B1: toripalimab Fab H.S53A (Fab, V domains shown)
VH: QGQLVQSGAEVKKPGASVKVSCKASGYTFTDYEMHWVRQAPIHGLEWIGVIEAETGGTAYNQKFKGRVTITADKSTSTAYMELSSLRSEDTAVYYCAREGITTVATTYYWYFDVWGQGTTVTVSS
VL: DVVMTQSPLSLPVTLGQPASISCRSSQSIVHSNGNTYLEWYLQKPGQSPQLLIYKVSNRFSGVPDRFSGSGSGTDFTLKISRVEAEDVGVYYCFQGSHVPLTFGQGTKLEIK
notes: heavy chain of Sm3 with this change; numbers count from the chain's first residue; as the light chain of Sm3; source: Brevibacillus, culture supernatant (ammonium sulfate precipitate); not shown: 6xHis, C-terminal, kept; 6xHN, C-terminal, kept
B2: toripalimab Fab L.P100W (Fab, V domains shown)
VH: B1 VH with A53S
VL: B1 VL with P100W
notes: as the heavy chain of Sm3; light chain of Sm3 with this change; numbers count from the chain's first residue; source: Brevibacillus, culture supernatant (ammonium sulfate precipitate); not shown: 6xHis, C-terminal, kept; 6xHN, C-terminal, kept
B3: toripalimab Fab L.L101I (Fab, V domains shown)
VH: B1 VH with A53S
VL: B1 VL with L101I
notes: as for B2
B4: toripalimab Fab L.P100V (Fab, V domains shown)
VH: B1 VH with A53S
VL: B1 VL with P100V
notes: as for B2
B5: toripalimab Fab L.P100R (Fab, V domains shown)
VH: B1 VH with A53S
VL: B1 VL with P100R
notes: as for B2
B6: toripalimab Fab L.P100N (Fab, V domains shown)
VH: B1 VH with A53S
VL: B1 VL with P100N
notes: as for B2
B7: toripalimab Fab L.P100M (Fab, V domains shown)
VH: B1 VH with A53S
VL: B1 VL with P100M
notes: as for B2
B8: toripalimab Fab L.L101A (Fab, V domains shown)
VH: B1 VH with A53S
VL: B1 VL with L101A
notes: as for B2
B9: toripalimab Fab L.L101D (Fab, V domains shown)
VH: B1 VH with A53S
VL: B1 VL with L101D
notes: as for B2
B10: toripalimab Fab L.L101Q (Fab, V domains shown)
VH: B1 VH with A53S
VL: B1 VL with L101Q
notes: as for B2
B11: toripalimab Fab L.L101F (Fab, V domains shown)
VH: B1 VH with A53S
VL: B1 VL with L101F
notes: as for B2
B12: toripalimab Fab H.S53Y (Fab, V domains shown)
VH: B1 VH with A53Y
VL: B1 VL
notes: as for B1
B13: toripalimab Fab L.L101G (Fab, V domains shown)
VH: B1 VH with A53S
VL: B1 VL with L101G
notes: as for B2
B14: toripalimab Fab L.P100Y (Fab, V domains shown)
VH: B1 VH with A53S
VL: B1 VL with P100Y
notes: as for B2
B15: toripalimab Fab L.L101K (Fab, V domains shown)
VH: B1 VH with A53S
VL: B1 VL with L101K
notes: as for B2
B16: toripalimab Fab L.L101N (Fab, V domains shown)
VH: B1 VH with A53S
VL: B1 VL with L101N
notes: as for B2
B17: toripalimab Fab L.P100S (Fab, V domains shown)
VH: B1 VH with A53S
VL: B1 VL with P100S
notes: as for B2
B18: toripalimab Fab L.P100Q (Fab, V domains shown)
VH: B1 VH with A53S
VL: B1 VL with P100Q
notes: as for B2
B19: toripalimab Fab L.L101M (Fab, V domains shown)
VH: B1 VH with A53S
VL: B1 VL with L101M
notes: as for B2
B20: toripalimab Fab L.P100T (Fab, V domains shown)
VH: B1 VH with A53S
VL: B1 VL with P100T
notes: as for B2
B21: toripalimab Fab L.L101E (Fab, V domains shown)
VH: B1 VH with A53S
VL: B1 VL with L101E
notes: as for B2

These binders were tested against T1, human programmed cell death protein 1 (hPD-1) C93S (aa 24-167) (Homo sapiens, UniProt Q15116, C93S) (assay: SPR; Carterra LSA; Fab from the ammonium sulfate precipitate of the culture supernatant immobilised on a NiHC200M chip; hPD-1 (1-1024 nM) or mPD-1-Fc (4-1024 nM) as analyte, fourfold dilution series, no regeneration; HBS-EP pH 7.4, 25 °C; medians over the spots of a construct, KD = koff/kon). Conditions: one partner purified.
T1 construct: made as a fusion with a TEV site and human Fc; the Fc was cut off with TEV protease; source: Expi293F, purified (Protein A, TEV cleavage of Fc, SEC; monomer fractions); not shown: Fc (human), C-terminal, cleaved
Outline: (§1)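 On a Carterra LSA at 25 °C, duplicate captures of Fabs were made on a NiHC200M chip; the Fabs came from Brevibacillus culture supernatants, were precipitated with ammonium sulfate and were redissolved in HBS-EP. Fourfold series of human PD-1 (1–1024 nM) or mouse PD-1-Fc (4–1024 nM) were passed over without regeneration, with 10 min association and 5 min dissociation. Binders that were not confirmed were assigned kon 10^3 […] and koff 10^−2 s^−1. The kdka model, run with slow- or fast-dissociation settings and keeping the better fit, gave the rates, and KD was taken as koff/kon from the median values for each construct.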

T1 sequence (Q15116 24-167 C93S): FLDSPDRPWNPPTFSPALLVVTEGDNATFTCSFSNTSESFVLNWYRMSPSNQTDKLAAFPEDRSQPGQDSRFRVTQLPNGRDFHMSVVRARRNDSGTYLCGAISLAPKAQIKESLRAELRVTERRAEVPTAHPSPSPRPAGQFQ

Binder	Kd [nM]	koff [s⁻¹]	kon [M⁻¹ s⁻¹]
B1	< 1.27	< 1e-05	7880
B2	< 1.54	< 1e-05	6510
B3	< 1.55	< 1e-05	6430
B4	7.83	6.3e-05	8040
B5	2.13	1.32e-05	6230
B6	1.39	2.33e-05	16800
B7	3.81	5.38e-05	14100
B8	< 1.61	< 1e-05	6210
B9	< 1.66	< 1e-05	6020
B10	2.78	2.5e-05	8990
B11	7.96	0.000141	17700
B12	< 1.18	< 1e-05	8440
B13	< 1.95	< 1e-05	5120
B14	< 0.355	< 1e-05	28200
B15	492	0.00276	5600
B16	< 1.23	< 1e-05	8160
B17	< 1.59	< 1e-05	6280
B18	9.25	7.95e-05	8600
B19	< 1.08	< 1e-05	9290
B20	1.24	1.18e-05	9480
B21	13.6	0.000124	9060

The binders below were run against T2, mouse programmed cell death protein 1 Fc fusion protein (mPD-1-Fc), mPD-1 C60S (aa 25-167) (Mus musculus, UniProt Q02242, stabilised) in the same assay as above. Conditions: one partner purified.
T2 construct: not cleaved; source: Expi293F, purified (Protein A, SEC; dimeric fraction); not shown: Fc (human), C-terminal, kept
Outline: as §1

Binder	Kd [nM]	koff [s⁻¹]	kon [M⁻¹ s⁻¹]
B1	94	0.00411	43700
B2	3.6	3.39e-05	9410
B3	34.3	0.00056	16300
B4	30.1	0.000479	15900
B5	24.7	0.000274	11100
B6	15.9	0.0003	18900
B7	8.48	0.000121	14200
B8	26.6	0.000225	8470
B9	172	0.0046	26800
B10	265	0.0143	54000
B11	1020	0.0615	60300
B12	187	0.00628	33500
B13	40.1	0.000405	10100
B14	1.79	3.62e-05	20200
B15	606	0.0212	35000
B16	134	0.00447	33300
B17	45.9	0.00105	22900
B18	8.31	9.77e-05	11800
B19	24.5	0.000673	27500
B20	19.4	0.000259	13400
B21	95.6	0.00392	41000
